Measured values as given in the supplement of paper PMC7877785.
± gives the uncertainty stated by the source.

Test: self-splicing fitness, log relative to wild type (ln ratio); higher = more splicing; Tetrahymena group I intron in knt gene, E. coli kanamycin selection, DiMSum; sequences stand for … in CUCUCU…GGAGGGAAAAGUUAUCAGGCAUGCACCUGGUAGCUAGUCUUUAAACCAAUAGAUUGCAUCGGUUUAAAAGGCAAGACCGUCAAAUUGCGGGAAAGGGGUCAACAGCCGUUCAGUACCAAGUCUCAGGGGAAACUUUGAGAUGGCCUUGCAAAGGGUAUGGUAAUAAGCUGACGGACAUGGUCCUAACCACGCAGCCAAGUCCUAAGUCAACAGAUCUUCUGUUGAUAUGGAUGCAGUUCACAGACUAAAUGUCGGUCGGGGAAGAUGUAUUCUUCUCAUAAGAUAUAGUCGGACCUCUCCUUAAUGGGAGCUAGCGGAUGAAGUGAUGCAACACUGGAGCCGCUGGGAACUAAUUUGUAUGCGAAAGUAUAUUGAUUAGUUUUGGAGUACUCGUGGUCG
How it was run: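 Pooled colonies went to amplicon sequencing on an Illumina HiSeq 2500 after six replicate transformations. The plates were LB agar with 100 μg/mL carbenicillin, 50 μM IPTG and 0.2% rhamnose, with or without 25 μg/mL kanamycin, incubated overnight at 37°C or 30°C. The E. coli BL21(DE3) library had all eight P1ex-region intron nucleotides randomised, the intron placed in the knt kanamycin-resistance gene on pET-22b(+). DiMSum fitness is the error-weighted combination of replicate fold changes, kanamycin against none, normalised to wild type.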

## AGACAGCAAUAUUACGCGGU
30 °C
  self-splicing fitness (ln): -3.61 ± 0.21
37 °C
  self-splicing fitness (ln): -2.4 ± 0.22

## AGACAGCAAUAUUACGCGUG
30 °C
  self-splicing fitness (ln): -1.91 ± 0.075
37 °C
  self-splicing fitness (ln): -0.597 ± 0.086

## AGACAGCAAUAUUACGCUAC
30 °C
  self-splicing fitness (ln): -2.43 ± 0.2
37 °C
  self-splicing fitness (ln): -2.61 ± 0.33

## AGACAGCAAUAUUACGCUUC
30 °C
  self-splicing fitness (ln): -3.78 ± 0.28
37 °C
  self-splicing fitness (ln): -1.86 ± 0.27

## AGACAGCAAUAUUACGGACA
30 °C
  self-splicing fitness (ln): -1.09 ± 0.1
37 °C
  self-splicing fitness (ln): -0.425 ± 0.12

## AGACAGCAAUAUUACGGCAG
30 °C
  self-splicing fitness (ln): -3.3 ± 0.15
37 °C
  self-splicing fitness (ln): -1.09 ± 0.12

## AGACAGCAAUAUUACGGCUC
30 °C
  self-splicing fitness (ln): -2.59 ± 0.15
37 °C
  self-splicing fitness (ln): -1.02 ± 0.13

## AGACAGCAAUAUUACGGGCG
30 °C
  self-splicing fitness (ln): -0.665 ± 0.1
37 °C
  self-splicing fitness (ln): -0.459 ± 0.12

## AGACAGCAAUAUUACGGUUA
30 °C
  self-splicing fitness (ln): -0.253 ± 0.082
37 °C
  self-splicing fitness (ln): -0.109 ± 0.079

## AGACAGCAAUAUUACGUAUG
30 °C
  self-splicing fitness (ln): -3.13 ± 0.15
37 °C
  self-splicing fitness (ln): -0.801 ± 0.12

## AGACAGCAAUAUUACGUUAU
30 °C
  self-splicing fitness (ln): -2.29 ± 0.1
37 °C
  self-splicing fitness (ln): -2.06 ± 0.12

## AGAGAGCAAUAUUACGAAAU
30 °C
  self-splicing fitness (ln): -3.71 ± 0.33
37 °C
  self-splicing fitness (ln): -1.89 ± 0.24

## AGAGAGCAAUAUUACGAAUG
30 °C
  self-splicing fitness (ln): -2.07 ± 0.22
37 °C
  self-splicing fitness (ln): -3.27 ± 0.47

## AGAGAGCAAUAUUACGAAUU
30 °C
  self-splicing fitness (ln): -1.19 ± 0.2
37 °C
  self-splicing fitness (ln): -2.95 ± 0.32

## AGAGAGCAAUAUUACGAGGA
30 °C
  self-splicing fitness (ln): -2.71 ± 0.4
37 °C
  self-splicing fitness (ln): -2.21 ± 0.34

## AGAGAGCAAUAUUACGAGGU
30 °C
  self-splicing fitness (ln): -2.98 ± 0.2
37 °C
  self-splicing fitness (ln): -1.87 ± 0.32

## AGAGAGCAAUAUUACGAGUU
30 °C
  self-splicing fitness (ln): -4.21 ± 0.3
37 °C
  self-splicing fitness (ln): -2.41 ± 0.2

## AGAGAGCAAUAUUACGAUAU
30 °C
  self-splicing fitness (ln): -2.21 ± 0.47
37 °C
  self-splicing fitness (ln): -2.2 ± 0.43

## AGAGAGCAAUAUUACGCACG
30 °C
  self-splicing fitness (ln): -2.18 ± 0.38

## AGAGAGCAAUAUUACGCAGU
37 °C
  self-splicing fitness (ln): -2.32 ± 0.35

## AGAGAGCAAUAUUACGCAUG
30 °C
  self-splicing fitness (ln): -3.23 ± 0.22
37 °C
  self-splicing fitness (ln): -1.9 ± 0.35

## AGAGAGCAAUAUUACGCCGG
30 °C
  self-splicing fitness (ln): -1.82 ± 0.25

## AGAGAGCAAUAUUACGCGCA
30 °C
  self-splicing fitness (ln): -3 ± 0.36
37 °C
  self-splicing fitness (ln): -1.74 ± 0.14

## AGAGAGCAAUAUUACGCUAA
37 °C
  self-splicing fitness (ln): -0.209 ± 0.21

## AGAGAGCAAUAUUACGGAGU
30 °C
  self-splicing fitness (ln): -3.87 ± 0.4
37 °C
  self-splicing fitness (ln): -3.3 ± 0.47

## AGAGAGCAAUAUUACGGAUU
30 °C
  self-splicing fitness (ln): -2.87 ± 0.2
37 °C
  self-splicing fitness (ln): -2.57 ± 0.34

## AGAGAGCAAUAUUACGGCAA
37 °C
  self-splicing fitness (ln): -1.48 ± 0.4

## AGAGAGCAAUAUUACGGCGG
30 °C
  self-splicing fitness (ln): -2.77 ± 0.48

## AGAGAGCAAUAUUACGGCUA
30 °C
  self-splicing fitness (ln): -1.86 ± 0.46
37 °C
  self-splicing fitness (ln): -2.19 ± 0.39

## AGAGAGCAAUAUUACGGGAA
30 °C
  self-splicing fitness (ln): -4.12 ± 0.35
37 °C
  self-splicing fitness (ln): -2.62 ± 0.28

## AGAGAGCAAUAUUACGGUAG
30 °C
  self-splicing fitness (ln): -1.46 ± 0.12
37 °C
  self-splicing fitness (ln): -2.18 ± 0.19

## AGAGAGCAAUAUUACGUAAC
37 °C
  self-splicing fitness (ln): -3.26 ± 0.31

## AGAGAGCAAUAUUACGUCCU
30 °C
  self-splicing fitness (ln): -2.25 ± 0.12
37 °C
  self-splicing fitness (ln): -0.89 ± 0.13

## AGAGAGCAAUAUUACGUCUU
30 °C
  self-splicing fitness (ln): -2.88 ± 0.19
37 °C
  self-splicing fitness (ln): -2 ± 0.18

## AGAGAGCAAUAUUACGUUAG
30 °C
  self-splicing fitness (ln): -2.77 ± 0.19
37 °C
  self-splicing fitness (ln): -2.45 ± 0.29

## AGAGAGCAAUAUUACGUUUU
30 °C
  self-splicing fitness (ln): -3.68 ± 0.35

## AGAUAGCAAUAUUACGACUC
30 °C
  self-splicing fitness (ln): -0.641 ± 0.12
37 °C
  self-splicing fitness (ln): -0.0202 ± 0.21

## AGAUAGCAAUAUUACGAGGA
30 °C
  self-splicing fitness (ln): -2.21 ± 0.21
37 °C
  self-splicing fitness (ln): -2.65 ± 0.48

## AGAUAGCAAUAUUACGAGGG
30 °C
  self-splicing fitness (ln): -3.73 ± 0.41
37 °C
  self-splicing fitness (ln): -1.77 ± 0.33

## AGAUAGCAAUAUUACGAUCC
30 °C
  self-splicing fitness (ln): -1.68 ± 0.38
37 °C
  self-splicing fitness (ln): -0.656 ± 0.39

## AGAUAGCAAUAUUACGAUUA
30 °C
  self-splicing fitness (ln): -0.68 ± 0.15
37 °C
  self-splicing fitness (ln): -0.852 ± 0.14

## AGAUAGCAAUAUUACGCCAA
30 °C
  self-splicing fitness (ln): -2.98 ± 0.38
37 °C
  self-splicing fitness (ln): -3.38 ± 0.37

## AGAUAGCAAUAUUACGCCAU
30 °C
  self-splicing fitness (ln): -2.38 ± 0.12
37 °C
  self-splicing fitness (ln): -1.27 ± 0.13

## AGAUAGCAAUAUUACGCCUA
30 °C
  self-splicing fitness (ln): -1.21 ± 0.099
37 °C
  self-splicing fitness (ln): -1.29 ± 0.13

## AGAUAGCAAUAUUACGCGUG
30 °C
  self-splicing fitness (ln): -1.44 ± 0.1
37 °C
  self-splicing fitness (ln): -1.01 ± 0.12

## AGAUAGCAAUAUUACGCUGA
30 °C
  self-splicing fitness (ln): -1.79 ± 0.14
37 °C
  self-splicing fitness (ln): -0.681 ± 0.17

## AGAUAGCAAUAUUACGGAAG
30 °C
  self-splicing fitness (ln): -3.57 ± 0.22
37 °C
  self-splicing fitness (ln): -2.02 ± 0.19

## AGAUAGCAAUAUUACGGAUA
30 °C
  self-splicing fitness (ln): -4.2 ± 0.42
37 °C
  self-splicing fitness (ln): -1.23 ± 0.23

## AGAUAGCAAUAUUACGGCUG
30 °C
  self-splicing fitness (ln): -0.377 ± 0.12
37 °C
  self-splicing fitness (ln): -0.792 ± 0.2

## AGAUAGCAAUAUUACGGGAA
30 °C
  self-splicing fitness (ln): -3 ± 0.27
37 °C
  self-splicing fitness (ln): -2.7 ± 0.25
